Substitutions are numbered along the chain they refer to. Each block holds one binder with its values, some of them ahead of it.
Key:
[1] = molecular target: T1, human Claudin 18.2 (CLDN 18.2) expressed on HEK293 / HEK293T cells (human); test: flow cytometry on HEK293 cells transiently transfected with GFP and human CLDN 18.2
T1 construct: Full-length CLDN18.2 on transiently or stably transfected HEK293/HEK293T cells; also called CLD18.2
Procedure: After cell detachment using 2 mM EDTA/PBS cells were washed with complete growth medium and plated at approximately 1-5×10⁵ cells/well in U-bottom microtiter plates. Cells were incubated for […]. at 4° C. with monoclonal antibody 3B8 followed by three washing steps with ice cold PBS and finally incubation with Dylight 650-conjugated secondary anti-IgG antibody. Binding was assessed by flow cytometry using a BD, Accuri™ C6 Plus. Fluorescence marker expression was plotted on the horizontal axis against antibody binding on the vertical axis. Mouse antibodies 3B8 were detected to bind specifically to the surface of fluorescence marker expressing HEK293 cells (FIG. 3, cells in Q5-UR).

[2] = molecular target: T1, human Claudin 18.2 (CLDN 18.2) …; test: cell-based ELISA (InCell Elisa) on fixed HEK293_CLDN18.2 cells, OD450; Kd table under the graph, no unit in the table, unit from the x axis log[antibody] ug/ml
[3] = molecular target: T1, human Claudin 18.2 (CLDN 18.2) …; test: cell-based ELISA (InCell Elisa) on formalin-fixed HEK293_CLDN18.2 cells, OD450; Kd box under the graph, no unit in the box, unit from the x axis log[antibody] nM; the curve on HEK293T cells stays flat at about 0.1
[4] = molecular target: T1, human Claudin 18.2 (CLDN 18.2) …; test: cell-based ELISA (InCell Elisa) on fixed HEK293_CLDN18.2 cells, y axis RLU; Kd table under the graph, no unit in the table, unit from the x axis log[antibody] ug/ml

T1 sequence (chain, as listed by the source limits assumed): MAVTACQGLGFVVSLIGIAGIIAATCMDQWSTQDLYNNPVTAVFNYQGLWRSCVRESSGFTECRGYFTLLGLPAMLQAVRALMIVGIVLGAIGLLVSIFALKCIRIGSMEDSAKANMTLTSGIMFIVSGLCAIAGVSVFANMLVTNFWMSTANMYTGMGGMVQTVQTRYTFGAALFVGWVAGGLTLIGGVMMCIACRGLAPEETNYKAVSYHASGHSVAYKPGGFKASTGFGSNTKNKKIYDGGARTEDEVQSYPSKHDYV

Kd [2]: 0.213 mg/L
Kd [4]: 0.225 mg/L
B5: h5C9o Fc mutation (antibody, V domains shown)
VH: EVQLVESGGGLVQPGGSLRLSCAVSGYTFSMNWVRQAPGKGLEWVAWINMYTGEPTYADDFKGRFTISRDDSKNTLYLQMNSLRAEDTAVYYCARLYNGNSLDYWGQGTLVTVSS
VL: DIQMTQSPSSLSASVGDRVTITCKSSQSLLNSGNQKSYLTWYQQKPGKAPKLLIYWASTLESGVPSRFSGSGSGTDYTLTISSLQPEDFATYYCQNAYSFPFTFGQGTKVEIKR

Kd [4]: 0.18 mg/L
B7: Anti-CLDN 18.2-5C9oai (humanized antibody h5C9oai) (antibody, human IgG1, V domains shown)
VH: B5 VH with Y97A, N98R, L102M
VL: DIQMTQSPSSLSASVGDRVTITCKSSQSLLNSGNQKSYLTWYQQKPGKAPKLLIYWASTLESGVPSRFSGSGSGTDYTLTISSLQPEDFATYYCQNAYSFPFTFGQGTKVEIK
notes: the general method uses human IgG1 constant domains

Kd [2]: 0.153 mg/L
Kd [4]: 0.206 mg/L
B8: Anti-CLDN 18.2-5C9ob (humanized antibody h5C9ob) (antibody, human IgG1, V domains shown)
VH: B5 VH
VL: B7 VL with S99F
notes: the general method uses human IgG1 constant domains; also called CLDN18.2-h5C9ob

Kd [2]: 0.168 mg/L
Kd [4]: 0.194 mg/L
B9: humanized anti-Claudin 18.2 antibody h5C9oan (antibody, human IgG1, kappa, V domains shown)
VH: B5 VH with L96S, Y97S, N98R, S101G, L102F
VL: B5 VL with S99F

Continued, binder first:

B1: Anti-CLDN 18.2-3B8 (antibody, V domains shown)
VH: EVKLVESGGGLVKPGGSLKLSCAASGFTFSSYAMSWVRQTPEKRLEWVASISSGGSTYYPDSVKGRFTISRDNARNILYLQMSSLRSEDTAMYYCASFGYDVAMDYWGQGTSVTVSS
VL: DVLMTQTPLSLPVSLGDQASISCRSSQSIVHSNGNTYLQWYLQKPGQSPKLLIYKVSNRFSGVPDRFSGSGSGTDFTLKISRVEAEDLGVYYCFQGSHVPFTFGSGTKLEIK
notes: Mouse monoclonal antibody; also called monoclonal antibody 3B8
EC50 [1]: 1 to 2 mg/L

B2: Anti-CLDN 18.2-5C9o (humanized antibody h5C9o) (antibody, V domains shown)
VH: B5 VH
VL: B7 VL
notes: Humanized IgG; The general method joins the variable domains to human IgG1 constant domains; Full chains are not mapped to the name; also called CLDN18.2-h5C9o
Kd [2]: 0.126 mg/L
Kd [3]: 0.169 nM

B3: humanized anti-Claudin 18.2 antibody h5C9oao (antibody, human IgG1, kappa, V domains shown)
VH: B5 VH with Y97A, N98R, L102M
VL: B5 VL with S99F
Kd [2]: 0.149 mg/L
Kd [4]: 0.154 mg/L

B4: Anti-CLDN 18.2-5C9oae (humanized antibody h5C9oae) (antibody, human IgG1, V domains shown)
VH: B5 VH with N98R
VL: B7 VL with S99F
notes: as for B7
Kd [2]: 0.123 mg/L
Kd [4]: 0.184 mg/L

B6: Anti-CLDN 18.2-5C9oag (humanized antibody h5C9oag) (antibody, human IgG1, V domains shown)
VH: B5 VH with Y97A, N98R, L102I
VL: B7 VL
notes: as for B7
Kd [4]: 0.191 mg/L

— patent US20200207857A1 (SPARX BIOSCIENCE, published 2020)
